Data as given in PMC7083937, “The ribosome-associated complex RAC serves in a relay that directs nascent chains to Ssb” (Nature Communications, 2020).
Residue numbers refer to the chain shown, from its start. Names may count otherwise. “Also recorded” adds a separate entry of the source.

Assays:
ribosomes = test: ribosome-binding assay; design: species or system Saccharomyces cerevisiae
Protocol: Yeast strains were grown to early log phase on YPD, prior to harvest cycloheximide was added to a final concentration of 100 µg/ml, and subsequently cells were collected via centrifugation at 5000 g. Cell pellets were resuspended in ribosome-binding buffer (20 mM Hepes/KOH pH 7.4, 2 mM Mg(OAc)2, 120 mM KOAc, 100 µg/ml cycloheximide, 2 mM DTT, 1 mM PMSF, protease inhibitor mix) and total cell extracts were prepared by the glass beads method. After a clearing spin at 20.000 g, each 60 µl of the total glass beads extract (A260 between 80 and 100 mAU) was loaded onto a 90 µl sucrose cushion (25% sucrose, 20 mM Hepes/KOH pH 7.4, 120 mM KOAc, 2 mM Mg(OAc)2, 2 mM DTT, 1 mM PMSF, protease inhibitor mix). After centrifugation at 400.000 g at 4 °C for 25 min the cytosolic supernatant was collected and the ribosomal pellet was resuspended in 300 µl ribosome-binding buffer. Aliquots of the total cell extract, cytosolic supernatant, and resuspended ribosomal pellets were precipitated by addition of TCA (trichloroacetic acid) to a final concentration of 5%. TCA pellets were dissolved in SDS-sample buffer and were analyzed on 10% Tris-Tricine gels followed by immunoblotting.

nascent Pgk1-100 = test: crosslinking to ribosome-bound nascent chain; type: binding, Saccharomyces cerevisiae; details: BS3
Text: (§1) DNA templates for transcription reactions were generated by PCR using pSPUTK-Pgk1[20] as a template. Reverse primers were designed such, that PCR products encoded different length PGK1 sequences, which all lacked a stop codon. The length of the resulting translation products, which remain ribosome-bound, is indicated in Results and Figure Legends. Transcripts were generated using SP6 polymerase (Thermo Fischer Scientific) as previously described. RNCs were generated via translation reactions primed with the stop codon-less transcripts at 20 °C in the presence of [^35S]-methionine (Hartmann-Analytic) for 80 min[20],[54]. Translation reactions were stopped by the addition of 50 µg/ml cycloheximide final concentration and subsequently RNCs were isolated via centrifugation at 400.000 g for 20 min in a TLA-100 or TLA-100.2 rotor (Beckman Coulter)[20].
(§2) Chemical crosslinking of ribosome-bound nascent chains to Ssb, Zuo1, or Ssz1 was analyzed essentially as described. In brief, resuspended RNCs were incubated in the presence of 400 µM BS^3 (bis-(sulfosuccinimidyl)-suberate, spacer length 1.14 nm, Thermo Scientific) for 20 min on ice and crosslinking was then quenched by the addition of TRIS base (tris(hydroxymethyl)aminomethane) to a final concentration of 50 mM. Crosslinked protein samples were precipitated by the addition of TCA (final concentration 5%), pellets were collected by centrifugation and were dissolved in dissociation buffer (200 mM TRIS/HCl pH 7.5, 4% SDS; 10 mM EDTA, 100 µg/ml BSA, protease inhibitor mix, 1 mM PMSF). Totals shown in Figs. 1,3 and Supplementary Fig. 1 before (total) and after BS^3 crosslinking (total + BS^3) represent 5% of the dissolved material employed for immunoprecipitation reactions. The resulting denatured protein samples were used to identify crosslink products between Ssb, Zuo1, or Ssz1 and nascent chains via affinity purification under denaturing conditions. To that end, protein A sepharose beads (GE Healthcare) were pre-coated with antibodies directed against Ssb, Zuo1, or Ssz1 and subsequently the denatured crosslinked material was allowed to bind to the beads resuspended in immunoprecipitation buffer (10 mM TRIS/HCl pH 7.5, 150 mM NaCl, 5 mM EDTA, 1% Triton X-100, protease inhibitor mix, 0.5 mM PMSF)[20]. Crosslink products bound to protein A sepharose beads were released by addition of SDS-sample buffer at 95 °C for 10 min. Samples were analyzed on Tris-Tricine gels[56] followed by autoradiography. Loading was normalized according to the signal of [^35S]-labelled nascent Pgk1 in the total prior to crosslinking. Relative crosslinking efficiencies between nascent Pgk1-100 and Zuo1 or Ssz1, respectively were determined as follows. For each biological replicate, band intensities of non-crosslinked nascent Pgk1-100 and of Pgk1-100 crosslink products (XL-Zuo1 or XL-Ssz1) was determined on a single autoradiograph for wild type RAC and the different mutant variants of RAC. The crosslinking efficiency (XL-Zuo1/Pgk1-100 or XL-Ssz1/Pgk1-100) of each sample was calculated and subsequently the ratio of XL-Zuo1/Pgk1-100 or XL-Ssz1/Pgk1-100 in the presence of wild type RAC was set to 1 in order to normalize the biological replicates (see Fig. 3c,d). The original data are provided as a Source Data file.
For complementation experiments translation reactions were performed in either ∆ssb1∆ssb2 or ∆ssb1∆ssb2∆zuo1∆ssz1 translation extract as indicated. Complementation with purified Ssb1 was performed by adding His6-tagged ScSsb1 at a final concentration of 2 µM to the translation reaction prior to the addition of mRNA. Ribosome-free cytosolic extract of various mutant yeast strains for complementation experiments as indicated in Results and Figure Legends was generated as follows. The A260 of a total cell extract prepared by the glass beads method (see above) was determined, and the total cell extract was subsequently adjusted to a final concentration of 800 mM KOAc. […]

nascent Pgk1-40 = test: crosslinking to ribosome-bound nascent chain; type: binding, Saccharomyces cerevisiae; details: wild type translation extract; BS3
Text: as §1, §2

[1] = test system: nascent Pgk1 chains of 50–150 residues; test: crosslinking to ribosome-bound nascent chain; type: binding, Saccharomyces cerevisiae; details: Δssb1Δssb2 translation extract (Ssb absent); BS3
Text: as §1, §2

nascent Pgk1-50 = test: crosslinking to ribosome-bound nascent chain; type: binding, Saccharomyces cerevisiae; details: wild type translation extract; BS3
Text: as §1, §2

nascent Pgk1-45 = test: crosslinking to ribosome-bound nascent chain; type: binding, Saccharomyces cerevisiae; details: wild type translation extract; BS3
Text: as §1, §2

[2] = nanoDSF thermal stability of RAC core complexes; type: physicochemical, Saccharomyces cerevisiae; details: 20 mM Hepes/KOH pH 7.5, 200 mM KCl, 5 mM MgCl2, 1 mM DTT, 20 to 90 °C at 1.5 °C/min, 330/350 nm, no peptide, three measurements shown
Protocol: The melting temperature of ScSsz1-Zuo1N, ScSsz1-Zuo1NΔLP or ScSsz1mut-Zuo1NΔLP with or without the LP-peptide (Peptide Specialty Laboratories GmbH, Heidelberg) were determined using the Prometheus NT.48 nanoDSF system using nano-DSF grade capillaries (NanoTemper Technologies GmbH). The measurements were performed in 20 mM Hepes/KOH pH 7.5, 200 mM KCl, 5 mM MgCl2, 1 mM DTT. The LP-peptide, which was dissolved in DMSO, was pre-diluted in the above buffer such that the final DMSO concentration in the experiment was below 0.5%. DMSO diluted in the same way was added to the negative control. Intrinsic protein fluorescence was measured continuously at 330 nm and 350 nm with a temperature gradient ranging from 20 to 90 °C at a rate of 1.5 °C/min. […]
(a-b) NanoDSF analysis of Ssz1-Zuo1N (blue) and Ssz1-Zuo1NDLP (orange) in a and Ssz1-Zuo1NDLP wit hout t he LP-pept ide (orange) or wit h t he LP-pept ide (blue) in b. Three measurements are shown.
Source data are provided as a Source Dat a f ile.
(c) Residues (L439S/K440P/I448F/G495K) mutated in Ssz1mut to block substrate binding to Ssz1-SBDb (cyan) are in stick representation (upper panel). Zuo1N is shown in orange a nd the LP-motif in yellow. Multiple sequence alignment of Hsp70 homologs (lower panel) wit h the mutations highlighted in yellow. The alignment is colored as in Fig. 2a. […]

## Ssb-ΔC23
ribosomes; Ssb-ΔC23 translation extract, supernatant/pellet, immunoblot
  ribosome association: not ribosome-associated but fully recovered in the supernatant fraction
ribosomes; total cell extract, supernatant/pellet, immunoblot
  ribosome binding: fully recovered in the cytosol
Nascent Pgk1-100; Ssb-ΔC23 translation extract
  crosslink to nascent Pgk1-100: no crosslink between Ssb-ΔC23 and Pgk1-100 was detected

B1: Ssz1: Hsp70 homolog, RAC subunit (protein)
chain: MSSPVIGITFGNTSSSIAYINPKNDVDVIANPDGERAIPSALSYVGEDEYHGGQALQQLIRNPKNTIINFRDFIGLPFDKCDVSKCANGAPAVEVDGKVGFVISRGEGKEEKLTVDEVVSRHLNRLKLAAEDYIGSAVKEAVLTVPTNFSEEQKTALKASAAKIGLQIVQFINEPSAALLAHAEQFPFEKDVNVVVADFGGIRSDAAVIAVRNGIFTILATAHDLSLGGDNLDTELVEYFASEFQKKYQANPRKNARSLAKLKANSSITKKTLSNATSATISIDSLADGFDYHASINRMRYELVANKVFAQFSSFVDSVIAKAELDPLDIDAVLLTGGVSFTPKLTTNLEYTLPESVEILGPQNKNASNNPNELAASGAALQARLISDYDADELAEALQPVIVNTPHLKKPIGLIGAKGEFHPVLLAETSFPVQKKLTLKQAKGDFLIGVYEGDHHIEEKTLEPIPKEENAEEDDESEWSDDEPEVVREKLYTLGTKLMELGIKNANGVEIIFNINKDGALRVTARDLKTGNAVKGEL
modifications: left off: His6-SUMO, N-terminal, state not stated
notes: Hsp70 homolog, RAC subunit
Nascent Pgk1-40
  crosslink to nascent Pgk1-40: formed crosslinks with these short nascent chains
[1]
  crosslink to nascent chains of 50–150 residues: efficient crosslinks
Nascent Pgk1-50
  crosslink to nascent Pgk1-50: below the detection limit
Nascent Pgk1-45
  crosslink to nascent Pgk1-45: most efficiently crosslinked to Pgk1-45
ribosomes; total cell extract
  localization of Ssz1 in RAC-∆N49: localized to the cytosol
  localization of Ssz1 in wild type, RAC-∆N8, or RAC-∆N16: ribosome-bound

B2: RAC core complex: ScSsz1 with ScZuo1N (residues 1-50) (protein)
chain 1: B1 chain
chain 2: MFSLPTLTSDITVEVNSSATKTPFVRRPVEPVGKFFLQHAQRTLRNHTWS
modifications: left off: His6-SUMO, N-terminal, state not stated | His6-MBP, N-terminal, cleaved
[2]
  melting temperature (thermal stability of RAC core complex): 52.9 °C

B3: Ssz1mut: Ssz1 with L439S/K440P/I448F/G495K in the peptide binding groove (protein)
chain: B1 chain with L439S, K440P, I448F, G495K
Nascent Pgk1-100; RACmut-ΔN8 (Zuo1-ΔN8/Ssz1mut) vs RAC-ΔN8
  contact of nascent Pgk1-100 with Ssz1mut compared to Ssz1: impaired; also recorded: strongly reduced

B4: Zuo1: J-domain protein (Hsp40), RAC subunit (protein)
chain: MFSLPTLTSDITVEVNSSATKTPFVRRPVEPVGKFFLQHAQRTLRNHTWSEFERIEAEKNVKTVDESNVDPDELLFDTELADEDLLTHDARDWKTADLYAAMGLSKLRFRATESQIIKAHRKQVVKYHPDKQSAAGGSLDQDGFFKIIQKAFETLTDSNKRAQYDSCDFVADVPPPKKGTDYDFYEAWGPVFEAEARFSKKTPIPSLGNKDSSKKEVEQFYAFWHRFDSWRTFEFLDEDVPDDSSNRDHKRYIERKNKAARDKKKTADNARLVKLVERAVSEDPRIKMFKEEEKKEKERRKWEREAGARAEAEAKAKAEAEAKAKAESEAKANASAKADKKKAKEAAKAAKKKNKRAIRNSAKEADYFGDADKATTIDEQVGLIVDSLNDEELVSTADKIKANAAGAKEVLKESAKTIVDSGKLPSSLLSYFV
Nascent Pgk1-40
  crosslink to nascent Pgk1-40: most efficiently crosslinked to Pgk1-40
[1]
  crosslink to nascent chains of 50–150 residues: efficient crosslinks
Nascent Pgk1-50
  crosslink to nascent Pgk1-50: below the detection limit
Nascent Pgk1-45
  crosslink to nascent Pgk1-45: formed crosslinks with these short nascent chains
Nascent Pgk1-100; Fig. 1e set-up
  crosslinking of Zuo1 to nascent Pgk1 when RAC or Ssz1 is absent from ribosomes: strongly enhanced
Nascent Pgk1-100; Δzuo1Δssz1Δssb1Δssb2 RNCs complemented with ribosome-free extracts
  contact of Zuo1 with nascent Pgk1-100 when Ssz1 was absent or not in a stable complex: remained in contact with Zuo1
